Reference: patent publication US20250152730A1, “ANTI-TM4SF1 ANTIBODY-DRUG CONJUGATES COMPRISING CLEAVABLE LINKERS AND METHODS OF USING SAME” (Angiex, Inc., priority 2022, published 2025)

B1: AGX-A07 variant comprising Fc region mutation N297C (antibody, V domains shown)
VH: QIQLVQSGPELKKPGETVKISCKASGYTFTNYGVKWVKQAPGKDLKWMGWINTYTGNPIYAADFKGRFAFSLETSASTAFLQINNLKNEDTATYFCVRFQYGDYRYFDVWGAGTTVTVSS
VL: QIILSQSPAILSASPGEKVTMTCRANSGISFINWYQQKPGSSPKPWIYGTANLASGVPARFGGSGSGTSYSLTISRVEAEDAATYYCQQWSSNPLTFGAGTKLELR
B2: A07C: AGX-A07 anti-TM4SF1 antibody with Fc region mutation N297C (the “C” variant) (antibody, V domains shown)
VH: B1 VH
VL: B1 VL
B3: AGX-A07 anti-TM4SF1 antibody (without Fc region mutations) (antibody, V domains shown)
VH: B1 VH
VL: B1 VL
B4: AGX-A07 variant comprising Fc region mutations N297C, M252Y, S254T and T256E (antibody, V domains shown)
VH: B1 VH
VL: B1 VL
B5: A07-wt: AGX-A07 anti-TM4SF1 antibody without Fc region mutations (antibody, V domains shown)
VH: B1 VH
VL: B1 VL
B6: A07-YTEC: AGX-A07 with N297C in combination with M252Y, S254T, and T256E (the “YTEC” variant) (antibody, V domains shown)
VH: B1 VH
VL: B1 VL

Legend:
HUVEC (endothelial cell) = assay: In vitro cell proliferation inhibition (killing) assay, HUVEC; format: cell-based, human; conditions: 5 days incubation
Experimental: Cells are incubated with antibody conjugate at various concentrations. The concentrations evaluated include a control, and five-fold dilution starting from 333.335 nM (333.335 nM, 66.667 nM, 13.334 nM, 2.667 nM, 0.533 nM (533.3360 pM), 106.6672 pM, 21.3334 pM, 4.2667 pM. Briefly, cells are seeded into 96-well plates a day before the antibody conjugates are added, whereupon cell viability is measured by PrestoBlue (ThermoFisher Scientific) through a plate reader (Varioskan™ LUX multimode microplate reader) five days after treatment with serial dilutions of the antibody conjugates. Cells are treated with media only or isotype matched control antibodies, as a negative control. The EC50 values are generated via GraphPad.
The effects of antibody drug-conjugates (drug to antibody ratio (DAR) varying from 1.8 to 4.2) containing a drug (maytansine) were assessed in cultured mouse (MS1) and human (HUVEC, A549, MiaPaCa2 and SKOV3) cells. Characteristics of the Exemplary Antibodies 1-5, each of which contains human IgG1 constant region with YTEC mutation, can be found in Table 3A. Cells were incubated for 5 days with the antibody drug conjugate before assessing cell viability on day 5.

[1] = in vivo; cited from earlier work
[2] = metabolite of trastuzumab emtansine (Kadcyla); every 2 weeks; cited from earlier work
[3] = target: T1, human TM4SF1 (transmembrane-4 L six family member-1) on HUVEC cells (UniProt P30408 1-202); assay: flow cytometry cell binding; HUVEC cells
T1 chain: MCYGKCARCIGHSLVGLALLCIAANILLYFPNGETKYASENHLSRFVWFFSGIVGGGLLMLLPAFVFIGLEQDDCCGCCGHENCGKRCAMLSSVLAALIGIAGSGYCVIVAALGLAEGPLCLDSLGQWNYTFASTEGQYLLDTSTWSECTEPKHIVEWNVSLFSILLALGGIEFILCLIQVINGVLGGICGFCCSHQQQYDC

[4] = Hydrophobicity by hydrophobic interaction chromatography (HIC); format: physicochemical; design: unit not given here; conditions: for Hydrophobicity (HIC), Average: average of 3 runs
Experimental: The hydrophobicity of exemplary anti-TM4SF1 antibodies, and their Fc mutation containing variants were assessed in this study, using hydrophobic interaction chromatography. The tested antibodies were AGX-A07 (the “wt,” “C,” and “YTEC”); MS (the “wt,” “C,” and “YTEC”). An anti-Her2 antibody with an Fc mutation was used as a control. Both in case of AGX-A07 and the murine surrogate anti-TM4SF1 antibody, it was observed that the hydrophobicity increased with the “C” and “YTEC” mutations.

EC50 [3] [nM]	Molecule	Hydrophobicity (HIC), Run 1 [4]	Hydrophobicity (HIC), Run 2 [4]	Hydrophobicity (HIC), Run 3 [4]	Hydrophobicity (HIC), Average [4]	also measured
	BrAc-Galactose-Sar-N-Me-Alanine-DM1 [Free LP]					EC50 (HUVEC (endothelial cell)): 906 nM
	COc1ccc(/C=C\c2cc(OC)c(OC)c(OC)c2)cc1OP(=O)(O)O [CA4P, Combretastatin]					Patients who experienced heart attacks while being treated [1]: seven
	COc1cc2cc(c1Cl)N(C)C(=O)CC(O)C1(C)OC1C(C)C1CC(O)(NC(=O)O1)C(OC)/C=C/C=C(\C)C2 (stereo not drawn) [Maytansinol, maytansinol]					Found in plasma [2]: 7%
2.3	B1					
	B2	5.614	5.591	5.606	5.60	
2.16	B3					
1.75	B4					
	B5	5.547	5.523	5.568	5.55	
	B6	5.781	5.77	5.888	5.81	
